Results: the DeepSol protein solubility set

Experiment: soluble on expression in E. coli; label from the status in PepcDB or PDB records

Soluble on expression in E. coli, not soluble:
MGSDKIHHHHHHMREGSIVKLESLINQKYSNLNQTEKEILAFIIENRDFVRKASLSEVAEKSLFSKSAIFRCCKKIGLTGFSQLRYVLTDEKDSEQDSLISVDYLAQTVKSMLWTVNQFKSTNADDIYATLAAAGTIYIYSTGWQQQIMAQQLQRDLYLIGKFAFVFPTGHDEMQLSSTKIKPGDAVIVISYKGMNATIVQLVNNLKLNGVRIVSFTSFRQNRLAQAANFNLYYDIINKTVGIERKTERFFANLTLLIDIFSMGFANYLVAKEERDHEHGEYGQRKSK, MGSDKIHHHHHHMRGKMIDDPIDLLRQYSRKLVRELGMLQLNKLAAKEQPSYWHTLIEINKEPNITISKLSQLLLVSLPTLSRIVNSLINDELVTVNEGLDKRERFLRVTDKGKEKVNYIDEYSNTKIKRAFHYLTDEEREQVITAIGKYAQALEQSRLIRDQIRILRLSTSRALRKQIVNMIENIQVNEFHLSITPEINASILKAEEEYCYYSSCNFWYAVDEQGGIIGSIGLKKLNHTEGEVKKFFIAPKYRGLGLAQKLMLTLVRNAMKHGFKKLFLGTVAQLNAARRFYEKNGFVLVNKNSLPKEFELCPLDTHFYYCETDKLDKSLRELI, MGSDKIHHHHHHMRHIAHYCVAHPAGSMVVPGTRKKRELLPSAAPWRLSGVFVSLDEIRKDWTTLGAAAPLWAVCVDPAKRHGGWDDDEFLASGRAEIDAAMARLAELGIAHGRERALDFGCGAGRLSNALAAYFDRVVGVDISAPMLAEARRLDRSGGRIDFLLNDAPDLKIFPDASFDLVYTDLVLQHLPPPLARGYLAEFARVLRPGGALVAGMPATERRTVKGLVFRYAPHRVIRFIQRVLLGYPAPMRMHTMPPEQMRELLASHGVRVVSAEEYAGDDHGTHWVHMRYYARKDPGAAL, MGSDKIHHHHHHMRIAPLPPLQCLVAFESAVRHASFTKAAAELHLTQSAISRQIAQLEDFLGRSLFVREHRALRLTIAGEGYAKHVQWLLASCSEATLDVMKRYGDMELTIACSSGVAVLWLTPRLGAFRAAHPNVRIRMIVRDGLASLSPAEFDVGLYYIRQRAEPHFTARRLFDEDVYPVCSPGYLAGRVLTPAGLVHETLLVQEDGQRQWMSWSEWFRLNHVQMPASPQAVVVNHYPQLVQMAILGQGVVLGWRHMIDACLSEGLLVRATQASASHGGGYYVVSPNDRSQNQAARLFTRWVFEQAEAQMGRAAS, MGSDKIHHHHHHMRIGFLSHAGASIYHFRMPIIKALKDRKDEVFVIVPQDEYTQKLRDLGLKVIVYEFSRASLNPFVVLKNFFYLAKVLKNLNLDFIQSAAHKSNTFGILAAKWAKIPYRFALVEGLGSFYIDQGFKANLVRFVINSLYKLSFKFAHQFIFVNESNAEFMRNLGLKENKICVIKSVGINLKKFFPIYVESEKKELFWKNLNIDKKPIVLMIARALWHKGVKEFYESATMLKDKANFVLVGGRDENPSCASLEFLNSGAVHYLGARSDIVELLQNCDIFVLPSYKEGFPVSVLEAKACGKAIVVSDCEGCVEAISNAYDGLWAKTKNAKDLSEKISLLLEDEKLRLNLAKNAAQDALQYDENIIAQRYLKLYDRVIKNV, MGSDKIHHHHHHMRISLSTGTLFTFPLGKVMAIARDAGFDGVELIVNQDFQKVNCRTLIRELAEILPIHSMHAPFMPLDGWGSSIDSLKRCVELSADCGVQLVNFHPPSWMGFELGFWRWLYRVMDFQKEVGQGGVIVTLENMPWVGKRVRMNPHILSSTTKFIDFIQERNLFMTFDTTHMGSGKANFINDFYLCYNSGRIRNIHFSDYGHGREHLLPGHGILPLTRFLNHLRSTGYNDTLTLELSPEEFPRDERIIVESLREILSYLRKETEHPIP, MGSDKIHHHHHHMRIVVSGGGTGGHIYPALAMIREIERRTPCEVLYIGTENGLEADIVRRAGIPFESIEISGIRRSLSFENVKTGFRFLKSVVRVRKLLRDFQPDIVVGTGGFVCGPVLYTAAKMGYKTLVHEQNSLPGITNKFLARYVDRVALSFKGSGHHFGKNKGKTILIGNPRASEVAMLQIDPVEEKRKYGFEQDRPLIVVYGGSRGAPAINKAVVDMIPKLTETDWSLLFVTGQVHYEDIQAQLGTLPDRIQLRPFIYDLPLILKASQLVISRSGASTLAELTTLGLPSILIPSPYVTENHQEVNASSLVETGASLLIRESELTGDRLFDACTKAIADQADMSKASLALGMPNAASDLVDELLRLIQRKN, MGSDKIHHHHHHMRIVYRASETFKKVHASTALVKAIRGPIGSGKSVGCVLEMFRVAQQQEPNAQGVRKTRWACVRNTYPELKGTVIKTFQTWIPEQICPIKYDSPITGKMNINHPDGKTRIEAEFLFLSMDKPKDVKKLMSLELTGIWINEAQFLPVSLVTEAVTRTGRYPEKRVEEGFMGATWNGMIMDTNSPDDDHWWYQFEQGIDEETEQPLKPKGWEFFVQPGALIDITGMPLATLSDEIKRNIEQGHYDDYLGHRFVANPIAENVINHKKGHGYWFDNIQGQTLNWIKSRVCNEFATVQQGKPVFGDHFNKELHVSTEKLVPVKGWETFIGLDFGLTPAAIIGQIAPIGQLRIVDEIVATGMGIERFITEQLSPLLRSRYAECAIQIIGDPAGVQRAQTDERTCFQLLEEYGFNARPAESNNTTARLEAVRWWLSRLVGKGQPAMLISPHCKTLIKGYETGYAYRQLNVSGEEKYTETPDKNRYSHPHDANQYLCLGAMPSLFKEQVINIKTHQPLSNITGY, MGSDKIHHHHHHMRKDKNGTQEPKAKYRVRNWAAYNAGLINRGNITMWIGDDALANMPDTEPTRGRSRLYSDALIQALLGLKTVFHLPLRALQGFAQSLRDLAFAELPVPNYTTVCRRAQALQVKLPVIHSDEPLHLVVDSTGAKVCGEGEWKVRQHGYSKRRTWRKVHLALDANTGQLRAALMTHQDVADGEVLPELLEQISADESIDTIGGDGAYDTQACYASITARGALPSIPPREGAVHWPTTTPGASRRNAALDAIAQGSRREWKQQSGYHRRSLAENAMYRLKTLTGPCLWARRTDTQATEVAVRVGVLNRMAELSRPQSVRIARDHEQRHHFVLTPDLCNNVHSSAERRQGRVSCAMHATI, MGSDKIHHHHHHMRKLPPLRALQIFEAAARHAHFSRAATELCITQSAVSHQVRLLEAHFGERLFIREGRQLCLTSKGNVLYHELERIFNELNDLSMQITGDCNDQLRLAVYSSFAIKWLIPRLSDFHRLHPQIKIRLDMITDDPQMSDSVADMFITGQSGQPGYVHRMLHQERLIPVICPGLLNTDHSALSVLRQHALLTVDEGPIGFDWERWLKVNSISIAATQQQHVFSHVLLAIEAAIAGQGIALASDFMVERDISKGALVALDLPAMLTGFEFNFSCKQRRLKEPAIAAFVQWLTKK, MGSDKIHHHHHHMRLAFFGDVHGNFEALKAVLEDMENKGVDEVFCLGDLVGYGPDPEAVVQTIMEKNIKTIMGNYDDAVGYSKESCGCSYAPGRETEVGDISLKWSIENTSEKTREFLRNLPKKLSFEVEGVRFLLVHGSPLNELLEYVKPNTPPDRLKKIVESVEENVVVNGHTHLPMVKWVMGKLVLNPGSAGRPKDGDPRASYMIVDVENGTVSFEIVRVRYDVKTTVEKIARNGLPVELATVLALGQTFDMGPGKVTFTLGR, MGSDKIHHHHHHMRLNLRQIEVFRAIMLTGSISGAAKLLHVSQPAVSRLISYAEQRLGLALFERIKGRLYPTPEAQRLFVEVNAVYQGVQRVNEIAEDLIENRMGHLRIACSPNLGQSLLPRAIAAFYERLPDVRIILHTMIPNVLLQAVLTQQVELGIAFLQDTHPNVESQLLYENRMVAAVPASHPFARRKTLAVRDLANQPLIGYGSDIPLGQLVRRLFSDESLVPQVKVEVQQAHVACALAQAGTGIALIDELTVAGPVWPQIVVKPIVPTLAAPVSVLHPVPTPLSRLAHAFIDTLHSLAAHA, MGSDKIHHHHHHMRNPPFIVEYELTLRCNFRCKHCYCEAGKPHLEELSFEEIKELILDMKELGTWALDIVGGEPLLHPQILDILAFGKEVGQRLMINTNGSLATKEMVQKIKKANPDVLIGVSLEGPDPETNDFVRGTGNFKRAVQGIKNFVDEGFQVTILNVINKRNWRKFEDMVKLALELGVNALYVDRFIPVGRGMIHARELDMNPEEWRVAIKHVLGVIENYKNHLTFYVEESISGKPCSAGITHASVLADGTVVPCGHFRYRKEFYMGNVREKKFSEIWHEYTPIPSPASCQQCPILNECGGGCKAYYLLREHEKDEAICFLNKERYNIK
